B1: full-length human CXCR4 with a C-terminal Flag-tag, P61073 1-352 (receptor)
chain: MEGISIYTSDNYTEEMGSGDYDSMKEPCFREENANFNKIFLPTIYSIIFLTGIVGNGLVILVMGYQKKLRSMTDKYRLHLSVADLLFVITLPFWAVDAVANWYFGNFLCKAVHVIYTVNLYSSVLILAFISLDRYLAIVHATNSQRPRKLLAEKVVYVGVWIPALLLTIPDFIFANVSEADDRYICDRFYPNDLWVVVFQFQHIMVGLILPGIVILSCYCIIISKLSHSKGHQKRKALKTTVILILAFFACWLPYYIGISIDSFILLEIIKQGCEFENTVHKWISITEALAFFHCCLNPILYAFLGAKFKTSAQHALTSVSRGSSLKILSKGKRGGHSSVSTESESSSFHSS

Assays:
[1] = target: full-length human CXCR4 with a C-terminal Flag-tag (human) (UniProt P61073); assay: cryo-EM structure
[2] = target: T1, full-length human CXCR4 with a C-terminal Flag-tag (human), P61073; assay: cryo-EM structure; conditions: remark: other sources report otherwise
T1 chain: B1 chain

[3] = target: T1, full-length human CXCR4 with a …; assay: native gel or EMSA; conditions: remark: other sources report otherwise

Molecule	stoichiometry N (gp120 per CXCR4 tetramer) [1]	stoichiometry N (protomers in the oligomer) [2]	stoichiometry N (protomers in the oligomer (main peak)) [3]
gp120^HIV-2-CD4 complex (from UniProt P01730 26-388)	2	–	–
B1	–	4	4

— paper PMC12485088
